The source of these data is publication PMC4372375.

In the experiment the target is pancreatic polypeptide (UniProt P01298).

B1: pancreatic polypeptide (peptide)
chain: APLEPVYPGDNATPEQMAQYAADLRRYINMLTRPRY
Molecule B1 had an LDH release assay, % cell death of SH-SY5Y cells after 30 h with 10 μM PP oligomers formed with heparin (PP incubated without heparin: no significant LDH release) of 35%.
